Experimental data reported in the DeepSol protein solubility set.

Assay: soluble on expression in E. coli; label from the status in PepcDB or PDB records

| Sequence | soluble on expression in E. coli |
| --- | --- |
| MEIHTYEKEFFDLLKRISHYSEAVALMHWDSRTGAPKNGSEDRAESIGQLSTDIFNIQTSDRMKELIDVLYERFDDLSEDTKKAVELAKKEYEENKKIPEAEYKEYVILCSKAETAWEEAKGKSDFSLFSPYLEQLIEFNKRFITYWGYQEHPYDALLDLFEPGVTVKVLDQLFAELKEAIIPLVKQVTASGNKPDTSFITKAFPKEKQKELSLYFLQELGYDFDGGRLDETVHPFATTLNRGDVRVTTRYDEKDFRTAIFGTIHECGHAIYEQNIDEALSGTNLSDGASMGIHESQSLFYENFIGRNKHFWTPYYKKIQEASPVQFKDISLDDFVRAINESKPSFIRVEADELTYPLHIIIRYEIEKAIFSNEVSVEDLPSLWNQKYQDYLGITPQTDAEGILQDVHWAGGDFGYFPSYALGYMYAAQLKQKMLEDLPEFDALLERGEFHPIKQWLTEKVHIHGKRKKPLDIIKDATGEELNVRYLIDYLSNKYSNLYLL | soluble |
| MRLKDLGERALLARLAPLGYPPEAPLPPGDDAGGVWAEGRAWLLKTDGFLYREVALKGMGPFEVGFRGVAATASDLLAKMGRPLGFTLGLFLPEDLEEGFVLELVRGAAEAAKRLGAFLLGGDTNRGVEVALTVSGYALAEAPLPRKALPGDLLYLAGDRWGRTGAAIRAHYEGRSLEGFPKIREAAFYPLPRLELLALSGLLRGSLDSSDGLAETLWQLADLGVGVEVEALPLYPDVLAFAGSEEAALELVLYGGEEFEAVLVVPQEGAAAVEARAKAKGLPLFRAGRVVAGEGVYLRGAPLPRKGYAHF | soluble |
| MGSDKIHHHHHHMMFVVNRHINYTDICVAKCPLCAFNNREGYLLSPEEILRKVREVDGITEVHIVGGHNPEVGVEYFEEVFRRIKREKPEVVIKALTATEVYYYAKKEKMSIREFLSRLKDAGLQAMPGGGAEILVDSVRRKISPNKCSSDEWLRVMKIAHELGIKSNATMLFGHVEEIRHRAIHLYRLRKLQEKTGGFVSFIPLVYHPENNPLGKIVREKTNPVDILKTIAVSRIALDNFRSVRAYWVMLGEKLTEVALRFGANDIDGTVVEEKVTHAAGAETPAGLTVERLVEICRSAGKRVGQRDTFCNILKWYA | not soluble |
| MKKLEIEFEQVVKQYKNTIYTVCFMFSKDSREVNDLFQDVLVNLWKGFDTFKGESNIGTWIWRVSLNTCISSDRKKKIVSVPLIMGIDLFEDRDEDTTQIKMLYNRISRLKHFDRAIVLLWLENFSYEEIAAIVGISVKNVSVRLFRIKEELKKMSNN | not soluble |
| MAAMPKPAAFWNDRFANEEYVYGEAPNRFVASAARTWLPEAGEVLLLGAGEGRNAVHLAREGHTVTAVDYAVEGLRKTERLATEAGVEVEAIQADVREWKPARAWDAVVVTFLHLPADERPGLYRLVQRCLRPGGRLVAEWFRPEQRTDGYTSGGPPDPAMMVTADELRGHFAEAGIDHLEAAEPTLDEGMHRGPAATVRLVWCRPSTSLEHHHHHH | soluble |
| MAVAGFSPIKLIWKNSRHDLVLAGQAGLSYKNNNYLYMDVDNKHAMARTYANGKFSLGARMAYEYRISNTLGAGATATYEFGGEVFAALATFNVHF | not soluble |
| SAANVAHGLQQNVLYVDSNGGLTASRLLQLLQAKTQDEEEQAEALRRIQVVHAFDIFQMLDVLQELRGTVAQQVTGSSGTVKVVVVDSVTAVVSPLLGGQQREGLALMMQLARELKTLARDLGMAVVVTNHITRDRDSGRLKPALGRSWSFVPSTRILLDTIEGAGASGGRRMACLAKSSRQPTGFQEMVDIGTWGTSEQSATLQGDQT | soluble |
| LAAGPALSARGYLALNGQTPAGCSLMEWQNDNNGRQRWCVRLVQGGGFAGPLFDGFDNLYVGQPGAIISFPPTQWTRWRQPVIGMPSTPRFLGHGRLLVSTHLGQLLVFDTRRGMVVGSPVDLVDGIDPTDATRGLADCAPARPGCPVAAAPAFSSVNGTVVVSVWQPGEPAAKLVGLKYHAEQLVREWTSDAVSAGVLASPVLSADGSTVYVNGRDHRLWALNAADGKAKWSAPLGFLAQTPPALTPHGLIVSGGGPDTALAAFRDAGDHAEGAWRRDDVTALSTASLAGTGVGYTVISGPNHDGTPGLSLLVFDPANGHTVNSYPLPGATGYPVGVSVGNDRRVVTATSDGQVYSFAP | not soluble |
| MNKFHDIFLELEQQIVQGDYQPGDLLPSENQLVETYNVSRETIRKALNLLINAGYIQKKQGKGSIVLNFKKFNFPISGVTSYKELQQTQHIESHTHVVSLEEIPVERNLAQLTGWTEGAPVWRLVRQREIEGEVDILDIDYLIKEIVPELPKHRAEDSIFDYLENDLGLAISYAQKEITVEPLTEMDKQLIGEVEGNHVVVVRSIMNLEDTRCFGYTESRHRLNKFKFVEFARRRKL | not soluble |
| MKKDIGDHLISKLDLQDIAKVLSDELSGSELNTVLLDIFNKRVQQETPSSLLSKYEGNKLVKPALLEDVLEYKEKELRCYKLIAGRGFEPIELSPVAQFGTNSVIATVDQKKVLTSLRNTEVQADPTNTIALHYASLKKKGELDNKTYNYSNISRVIRTQVFNNPNFTPHFTVLALISCGRDTGSFNFEKEELLKHLTTSYEICKSYGVEKIYYEIIPCKGYDSQSPLIMESISYVRKKNSNLEVLVIAPEHDNNYYHGFRIKQQIVIGGNTIEIADGGLLDWTQQLLTNKKERMMTFGLGIQVLYHLTK | soluble |
| MIWRLIMLIDRFGRPVTNLRISLTKECNLSCFYCHREGQLDGERFMTPEEIERIVRVASRLGIKKVKLTGGEPTIRKDILEIIRRLKPYVVDLSLTTNGTTMYVLAEKLKEAGLDRVNISLDTLDRKKYKMITGFNVLDEVIKGIKKATKLFYPVKLNMVVMKGVNDDEIWDMMRFAGEVNAILQLIELEVPREMENSQFFKDFFYPLKPLEEKFEKLAVKVKERRMHRRRKYFIPIDGKIVEVEVVRSMHNTVFCMNCTRLRLTADGYLKTCLLRRDDLIDILGPLRNGASDADLIEIFKRAVLLRRPYWTSNSSLEHHHHHH | soluble |
| MSSNQYIQSLELTNFTVLPNDTFEFSENLNVIVAENGCGKTHLLKILYSLLEVTSNTKNRLLKTELQKSFADKLLNVFRPDSLGRLSKRLQGRGRTEIVLKLQNGTTHSSLNFSSNSSSQVNVQSIGLKENEYTPTPIFLPSRELITLCPWFTSLYQNQSIPFEETWFDTCMQLNHPLAKGPRETKIRELLEPIENAMGGKVSEEQGRFYLSLTNTGGKIEAPLVAEGLRKFVMIARLIATGALLDKGYLFWDEPEANLNPKLIKVAARIIWSLSQQGIQVFIATHSLFLLRELELLKLENNTDLPVRFFSLIASDDGTKVEQGNSINDLNTLILLDENIMQADRYLNI | not soluble |
| MMNYRKADMKDISLLVSIRKRQLIDEGIEPNIDIDKELTRYFNNKLANNLLVEWIAEENNQIIATAAIAFIDFPPTYTNKTGRKGYITNMYTEPTSRGNGIATGMLDRLVNEAKERNIHKICLVASKLGRPVYKKYGFQDTDEWLELNLLEHHHHHH | soluble |
| MGSDKIHHHHHHSCVNDLDTVPLDKDELVSDVVFGNEPLAYEQSLAKIYAGMAIGGNSGGDSDQDVVGIDGGSQASFLRVLWNMQDLPSDIAHCAWNDPGIPEFNHISWGASSPWIKGSYYRLFYQINVANAYLRETAEDKLDARGCDASLKASIKTWRAEARFLRALSYEYALDLYRNVPFVDENSPIGSIPPKQIMAADLFNWIEKELTECVEDMLEPTVGYSQDYGHANKAAAWALLSRLYLNAETYVGQNKYTECITYAKKVIETGYQLEPVYVDMFKADNHLSNEMIFPVRYEGDQTMTWGGMTAFLCWGATATQEEVNAKGAWQGVRAKSSLYNLFLKESGSDADTRKAMLRTDLTTSLEIIDENTFQNNGIPVTKYFNVNKDGTLPPSKEAYVDFPLFRLGEIYLTYAEAVLRGGQGGDRATALRYVNDLRKRAYSDKTLAPISDSDLTLNFIIDERGREFFFEGQRRTDLVRFGLFTTAGYVWPWKGGTAKGKAVENFYNVFPIPSDDIGSNTNLKQNEGY | not soluble |
| GIDPFTMLRPRLCTMKKGPSGYGFNLHSDKSKPGQFIRSVDPDSPAEASGLRAQDRIVEVNGVCMEGKQHGDVVSAIRAGGDETKLLVVDRETDEFFKKCRVIPSQEHLNGPLPVPFTNGEIQKENSREALAEAALESPRPALVRSASSDTSEELNSQDSPPKQDSTAPSSTSSSDPILDFNISLAMAKERAHQKRSSKRAPQMDWSKKNELFSNL | soluble |
